The values that follow come from US20190309274, “IL-10 RECEPTOR ALPHA HOMING ENDONUCLEASE VARIANTS, COMPOSITIONS, AND METHODS OF USE” (bluebird bio, Inc., published 2019).

For data set [1], the target named is T1, IL-10Rα.G7.A3 I-OnuI homing endonuclease variant (Artificial (Ophiostoma novo-ulmi I-OnuI …)).
T1 chain: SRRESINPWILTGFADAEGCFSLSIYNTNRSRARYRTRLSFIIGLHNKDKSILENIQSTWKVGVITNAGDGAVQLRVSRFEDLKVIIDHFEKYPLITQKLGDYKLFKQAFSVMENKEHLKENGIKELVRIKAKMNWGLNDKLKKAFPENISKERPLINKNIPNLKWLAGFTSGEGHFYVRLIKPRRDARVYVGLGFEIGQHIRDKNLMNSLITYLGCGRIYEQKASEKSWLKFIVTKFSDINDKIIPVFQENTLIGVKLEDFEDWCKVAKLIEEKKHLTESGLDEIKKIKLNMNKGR
The experiment in a line: cell_activity; chromosomal mCherry reporter in HEK 293T; variant isolated by display sorting under 50 pM affinity conditions. As for the experimental part:
The activity of reprogrammed I-OnuI HEs that target exon 2 of the IL-10Rα gene was measured using a chromosomally integrated fluorescent reporter system (Certo et. al., 2011). Fully reprogrammed I-OnuI HEs that bind and cleave the IL-10Rα target sequence were cloned into mammalian expression plasmids and then individually transfected into a HEK 293T […] cell line that was reprogrammed to contain the IL-10Rα target sequence upstream of an out-of-frame gene encoding the fluorescent mCherry protein. Cleavage of the embedded target site by the HE and the subsequent accumulation of small insertions or deletions, caused by DNA repair via the non-homologous end joining (NHEJ) pathway, results in approximately one out of three repaired loci placing the fluorescent reporter gene back “in-frame”. mCherry fluorescence is therefore a readout of endonuclease activity at the chromosomally embedded target sequence. […] FIG. 3.
A secondary I-OnuI variant library was generated by performing random mutagenesis on one of the reprogrammed I-OnuI HEs that targets the IL-10Rα target site, identified in the initial reporter screen (IL-10Rα.G7, SEQ ID NO: 6). In addition, display-based flow sorting was performed under more stringent affinity conditions (50 pM) to isolate variants with improved binding characteristics. FIG. 3. […]

Data set [2] addresses T2, IL-10Rα.G7.A3.G7 I-OnuI homing endonuclease variant (Artificial (Ophiostoma novo-ulmi I-OnuI …)).
T2 chain: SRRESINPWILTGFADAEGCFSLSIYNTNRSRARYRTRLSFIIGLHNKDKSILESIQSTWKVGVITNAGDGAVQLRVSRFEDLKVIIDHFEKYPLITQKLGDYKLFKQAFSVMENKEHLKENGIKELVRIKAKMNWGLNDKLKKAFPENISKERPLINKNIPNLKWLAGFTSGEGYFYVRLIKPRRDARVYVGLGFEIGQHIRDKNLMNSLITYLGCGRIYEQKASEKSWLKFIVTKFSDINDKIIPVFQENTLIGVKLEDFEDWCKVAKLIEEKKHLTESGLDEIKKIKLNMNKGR
The experiment in a line: flow; yeast surface display substrate titration; stated as sub-nanomolar affinity, exact value only in figure. Conditions: tags: yeast surface display.

B1: IL-10Rα exon 2 HE target site (dsDNA)
DNA 1: GGTGGAAAAATTCTGCTTCAAA
DNA 2: TTTGAAGCAGAATTTTTCCACC
In data set [1], B1 returned an activity of around 2 fold vs IL-10Rα.G7. For the same molecule, the Kd in data set [2] is below 1 nM.

For orientation: Kd means the concentration at which binding is half-saturated. A lower Kd goes with higher affinity.
